Results: PMC2995306 (Science (New York, N.Y.), 2009)
Positions count from the first letter of the chain named. Read-outs that look alike come from different tables or passages of the source.

Assays:
crystal structure = target: the molecule itself; assay: crystal structure
[1] = target: the molecule itself

B1: rhesus rotavirus (RRV, serotype G3) VP7 trimer, recombinant (natural protein, UniProt P12476 51-326, looked up)
chain: QNYGINLPITGSMDTAYANSTQEETFLTSTLCLYYPTEAATEINDNSWKDTLSQLFLTKGWPTGSVYFKEYTDIASFSVDPQLYCDYNVVLMKYDATLQLDMSELADLILNEWLCNPMDITLYYYQQTDEANKWISMGSSCTIKVCPLNTQTLGIGCLTTDTATFEEVATAEKLVITDVVDGVNHKLDVTTATCTIRNCKKLGPRENVAVIQVGGSDVLDITADPTTAPQTERMMRINWKKWWQVFYTVVDYVNQIIQAMSKRSRSLNSAAFYYRI
modifications: N-linked glycan at Asn69
Crystal structure
  stoichiometry N: 3

B2: disulfide-linked variant of the VP7 trimer (cysteines substituted for Thr276 and Gln305) (natural protein, rhesus rotavirus (RRV, serotype G3), UniProt P12476 51-326, looked up)
chain: B1 chain with T226C, Q255C
modifications: intersubunit disulfide between the cysteines at 276 and 305
[1]
  stoichiometry N: 3
